From the supplement of paper PMC7877785
± gives the uncertainty stated by the source.

Assay: self-splicing fitness, log relative to wild type (ln ratio); higher = more splicing; Tetrahymena group I intron in knt gene, E. coli kanamycin selection, DiMSum; sequences stand for … in CUCUCU…GGAGGGAAAAGUUAUCAGGCAUGCACCUGGUAGCUAGUCUUUAAACCAAUAGAUUGCAUCGGUUUAAAAGGCAAGACCGUCAAAUUGCGGGAAAGGGGUCAACAGCCGUUCAGUACCAAGUCUCAGGGGAAACUUUGAGAUGGCCUUGCAAAGGGUAUGGUAAUAAGCUGACGGACAUGGUCCUAACCACGCAGCCAAGUCCUAAGUCAACAGAUCUUCUGUUGAUAUGGAUGCAGUUCACAGACUAAAUGUCGGUCGGGGAAGAUGUAUUCUUCUCAUAAGAUAUAGUCGGACCUCUCCUUAAUGGGAGCUAGCGGAUGAAGUGAUGCAACACUGGAGCCGCUGGGAACUAAUUUGUAUGCGAAAGUAUAUUGAUUAGUUUUGGAGUACUCGUGGUCG
Procedure, shortened: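 A randomised library covering all eight P1ex-region intron nucleotides was built with the intron in the knt kanamycin-resistance gene on pET-22b(+) and held in E. coli BL21(DE3). Cells were grown overnight at 37°C or 30°C on LB agar, with or without 25 μg/mL kanamycin, plus 100 μg/mL carbenicillin, 50 μM IPTG and 0.2% rhamnose, and pooled colonies were amplicon-sequenced on an Illumina HiSeq 2500. DiMSum fitness is the error-weighted combination of wild-type-normalised replicate fold changes, kanamycin versus none.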

Sequence | self-splicing fitness (ln) (30 °C) | self-splicing fitness (ln) (37 °C)
GCCUAGCAAUAUUACGAAUA | -2.12 ± 0.43 | 
CAGCAGCAAUAUUACGUCUC | -1.15 ± 0.064 | -0.898 ± 0.075
UACCAGCAAUAUUACGGCAA | -0.203 ± 0.067 | 0.462 ± 0.094
GCUAAGCAAUAUUACGAAUA | -2.16 ± 0.21 | -1.73 ± 0.24
GGUCAGCAAUAUUACGUUCU | -0.13 ± 0.1 | 0.22 ± 0.11
UACAAGCAAUAUUACGAGGU | -4.06 ± 0.28 | -1.94 ± 0.28
UACAAGCAAUAUUACGACCA | -0.29 ± 0.12 | -0.203 ± 0.16
GUGAAGCAAUAUUACGCAUG | -1.5 ± 0.15 | -1.23 ± 0.18
GCAGAGCAAUAUUACGGGGG | -3.1 ± 0.34 | -3.56 ± 0.39
GAACAGCAAUAUUACGCUUG | -0.92 ± 0.072 | -0.731 ± 0.087
ACGUAGCAAUAUUACGGAUC | -1.97 ± 0.096 | -0.313 ± 0.097
GUGUAGCAAUAUUACGUCGG | -2.7 ± 0.24 | -2.73 ± 0.33
GCGGAGCAAUAUUACGACAA | -1.13 ± 0.23 | -1.7 ± 0.29
GGGAAGCAAUAUUACGGGAU |  | -0.0224 ± 0.27
GCACAGCAAUAUUACGAAGC | -2.52 ± 0.23 | -0.749 ± 0.15
AACUAGCAAUAUUACGGUUC | -4.49 ± 0.24 | -2.94 ± 0.21
AUCUAGCAAUAUUACGCUAU | -3.15 ± 0.21 | -1.49 ± 0.14
ACUGAGCAAUAUUACGUGUU | -4.1 ± 0.15 | -2.25 ± 0.11
GGGGAGCAAUAUUACGUCAU |  | -2.07 ± 0.39
GGCCAGCAAUAUUACGGCUU | -3.45 ± 0.21 | -2.68 ± 0.22
UCCGAGCAAUAUUACGCAGG | -3.19 ± 0.17 | -1.88 ± 0.19
AUUGAGCAAUAUUACGUACA | -3.85 ± 0.27 | -1.87 ± 0.16
GCAAAGCAAUAUUACGUCUC | -1.02 ± 0.11 | -0.501 ± 0.12
AUCGAGCAAUAUUACGCGUC | -2.85 ± 0.21 | -2.7 ± 0.43
GCAUAGCAAUAUUACGGCAU | -1.21 ± 0.096 | -1.19 ± 0.083
UCUCAGCAAUAUUACGAUCC |  | -1.66 ± 0.37

Sequence | self-splicing fitness (ln) (30 °C) | self-splicing fitness (ln) (37 °C)
UGACAGCAAUAUUACGGCCU | -0.801 ± 0.068 | 0.131 ± 0.078
CACUAGCAAUAUUACGCGUU | -2.86 ± 0.13 | -0.877 ± 0.11
ACCUAGCAAUAUUACGCCAU | -3.51 ± 0.27 | -1.21 ± 0.19
GAUAAGCAAUAUUACGCAUG | -1.21 ± 0.084 | -0.777 ± 0.11
CAGCAGCAAUAUUACGAUAU | -3.29 ± 0.24 | -2.3 ± 0.19
GAAUAGCAAUAUUACGCAUA | -2.62 ± 0.29 | -1.08 ± 0.17
UCAUAGCAAUAUUACGUGCG | -1.26 ± 0.11 | -0.279 ± 0.1
GUUUAGCAAUAUUACGGUUA | -1.68 ± 0.18 | -0.49 ± 0.12
AGUGAGCAAUAUUACGUGGU | -3.64 ± 0.22 | -2.18 ± 0.23
GAACAGCAAUAUUACGUGGU | -3.12 ± 0.11 | -1.89 ± 0.09
UAGUAGCAAUAUUACGGGGC | -3.84 ± 0.39 | -2.68 ± 0.27
ACCAAGCAAUAUUACGUGGA | -2.92 ± 0.14 | -1.49 ± 0.11
AGCAAGCAAUAUUACGACGC | -1.09 ± 0.11 | 0.048 ± 0.12
UUCCAGCAAUAUUACGCCGA | -0.126 ± 0.13 | 0.309 ± 0.16
CUUAAGCAAUAUUACGGGUC | -4.47 ± 0.34 | -2.98 ± 0.23
AAGGAGCAAUAUUACGAGGC | -2.89 ± 0.17 | -2.41 ± 0.44
GCUAAGCAAUAUUACGAUUA | -1.63 ± 0.22 | -0.39 ± 0.18
CGAUAGCAAUAUUACGUAAU | -2.55 ± 0.15 | -1.92 ± 0.15
GACGAGCAAUAUUACGCUUA | -2.29 ± 0.15 | -1.13 ± 0.14
CGUCAGCAAUAUUACGUCUC | -2.87 ± 0.24 | -0.999 ± 0.14
GGUGAGCAAUAUUACGGAUG | -3.73 ± 0.22 | -2.62 ± 0.22
GAUAAGCAAUAUUACGUUGG | -3.89 ± 0.21 | -2.87 ± 0.25
GUCUAGCAAUAUUACGUCCG | -2.96 ± 0.28 | -0.525 ± 0.19
GGUAAGCAAUAUUACGCUAU | -2.53 ± 0.17 | -2.05 ± 0.27
GCGGAGCAAUAUUACGGGUG |  | -1.36 ± 0.34
GCUAAGCAAUAUUACGUCUA | -0.793 ± 0.095 | -0.911 ± 0.12

Sequence | self-splicing fitness (ln) (30 °C) | self-splicing fitness (ln) (37 °C)
CUGCAGCAAUAUUACGAGGC | -2.65 ± 0.17 | -1.97 ± 0.22
GUAAAGCAAUAUUACGGUCU | -0.245 ± 0.071 | 0.0323 ± 0.092
UUGUAGCAAUAUUACGAUCC |  | -0.641 ± 0.37
CGCUAGCAAUAUUACGAUCA | -0.592 ± 0.16 | -0.635 ± 0.13
UAGUAGCAAUAUUACGUCAG |  | -0.99 ± 0.22
GGCCAGCAAUAUUACGUCUG | -3.07 ± 0.24 | -2.93 ± 0.32
UAUCAGCAAUAUUACGCUCG | -0.0189 ± 0.079 | 0.35 ± 0.12
AGUAAGCAAUAUUACGGCUC | -2.15 ± 0.2 | -1.79 ± 0.27
ACUCAGCAAUAUUACGAUUC | -1.63 ± 0.087 | -0.302 ± 0.1
GAAUAGCAAUAUUACGCCGC |  | -1.45 ± 0.43
AUGGAGCAAUAUUACGUAUA | -1.75 ± 0.45 | -2.02 ± 0.36
UACUAGCAAUAUUACGCGCU | -3.19 ± 0.18 | -1.8 ± 0.15
AUAAAGCAAUAUUACGCCUA | -0.422 ± 0.091 | -0.286 ± 0.1
UAAGAGCAAUAUUACGAGCU | -2.93 ± 0.3 | -2.6 ± 0.44
UCGCAGCAAUAUUACGCGAA | -1.65 ± 0.23 | -2.45 ± 0.25
UGUUAGCAAUAUUACGAGUA | -1.32 ± 0.13 | -0.347 ± 0.13
CACCAGCAAUAUUACGAGGG | -2.81 ± 0.088 | -1.79 ± 0.093
UAUGAGCAAUAUUACGGCAA | -2.46 ± 0.38 | -2.15 ± 0.3
UAAAAGCAAUAUUACGGCCA | 0.0708 ± 0.15 | 0.573 ± 0.19
GCGUAGCAAUAUUACGCUUG |  | -2.26 ± 0.33
ACCGAGCAAUAUUACGUGCG | -1.64 ± 0.082 | -1.37 ± 0.13
CCUAAGCAAUAUUACGACUC | -3.42 ± 0.38 | -2.04 ± 0.3
AGUGAGCAAUAUUACGGCCU | -0.495 ± 0.13 | 0.416 ± 0.15
GUGGAGCAAUAUUACGUGCU | -3.68 ± 0.2 | -3.09 ± 0.4
GAAUAGCAAUAUUACGUCAC | -2.47 ± 0.17 | -1.31 ± 0.17
UCCGAGCAAUAUUACGUAAC |  | -0.912 ± 0.35
